Data set [1] concerns the target Branchiostoma lanceolatum Class II PRPS (Branchiostoma lanceolatum). Put plainly: SEC; lysate of HEK293T cells with exogenously expressed Class II PRPS; fractions analysed by Western blot.
Data set [2] concerns the molecule itself. Nature of the data set: SEC; native whole-cell lysates of NIH3T3 AP1 KO and AP1/AP2 KO cells on Yarra SEC-2000 (1 kDa to 300 kDa); fractions analysed by Western blot.

“Branchiostoma lanceolatum Class II PRPS (enzyme)” came in with a stoichiometry N in data set [1] of 2 to 6.

B1: PRPS2 (endogenous, mouse) (enzyme, UniProt Q9CS42 1-318, looked up)
chain: MPNIVLFSGSSHQDLSQRVADRLGLELGKVVTKKFSNQETSVEIGESVRGEDVYIIQSGCGEINDNLMELLIMINACKIASSSRVTAVIPCFPYARQDKKDKSRAPISAKLVANMLSVAGADHIITMDLHASQIQGFFDIPVDNLYAEPAVLQWIRENITEWRNCIIVSPDAGGAKRVTSIADRLNVEFALIHKERKKANEVDRMVLVGDVKDRVAILVDDMADTCGTICHAADKLLSAGATKVYAILTHGIFSGPAISRINSAAFEAVVVTNTIPQEDKMKHCSKIQVIDISMILAEAIRRTHNGESVSYLFSHVPL
notes: PRPS2, endogenous in mouse cells and tissues; also called P2; phosphoribosyl pyrophosphate synthetase 2; source: endogenous, NIH3T3 lysate (parental and CRISPR knockout lines); endogenous, C57BL/6 mouse liver, kidney and lung lysates
Consider B1, for which, in data set [2], the “stoichiometry N” value was determined as 2.

One may read the stoichiometry N as the number of molecules, sites or subunits per partner or assembly.

(Values after publication PMC12238573 (Nature Communications, 2025).)
